Source: paper PMC5801815 (Virology Journal, 2018)

B1: MAb 3H7A9 (antibody, V domains shown)
VH: EVQLQQSGAELVKPGASVKLSCTASGFNIKDTYMHWVKQRPEQGLEWIGRIDPANGNTQYGPKFQGKATITADTSSNTAYLQLSSLTSEDTAVYYCARGGIFYYYGSSYSYAMDYWGQGTSVTVSS
VL: DIQMTQTTSSLSASLGDRVTISCRASQDISNYLNWYQQKPDGTVTLLIYYTSRLHSGVPSRFSGSGSGTDYSLTISNLEQEDIATYFCQQGNTLPRTFGGGTKLEIK
B2: MAb 8A6F2 (antibody, V domains shown)
VH: DVQLQESGPDLVKPSQSLSLTCTVTGYSITSGYNWHWIRQFPGNKLEWMGYIHYSGGTNYNPSLKSRISITRDTSKNQFFLQLNSVTTEDTATYYCARRTGTVPFAYWGQGTLVTVSA
VL: EIVLTQSPALMAASPGEKVTITCSVSSSISSSNLHWYQQKSETSPKPWIYGTSNLASGVPVRFSGSGSGTSYSLTISSMEAEDAATYYCQQWSSYPLTFGGGTKLEIK
notes: also called biotinylated 8A6F2; 86FA2
B3: MAb 6D4B10 (antibody, V domains shown)
VH: EVQLQQSGPELVKPGASVKMSCKASGYTFTSYVMHWVKQKPGQGLEWIGYLNPYNDDTKYNEKFKGKATLTSDKSSSTAYMELSSLTSEDSAVYYCAYGPPYALDYWGQGTSVTVSS
VL: QIVLTQSPAIMTASLGERVTMTCTASSSVSSSYLHWYQQKPGSSPKLWIYSTSNLASGVPARFSGSGSGTSYSLTISSMEAEDAATYYCHQYHRSPYTFGGGTKLEIK
notes: also called biotinylated 6D4B10

Columns and labels:
[1] = target: SUMO*-DENV-4 NS1 fusion protein (not stated | dengue virus 4 (DENV-4), strain H421) (UniProt Q58HT7); test: SDS-PAGE
[2] = target: T1, recombinant DENV-4 non-structural protein 1 (unfused commercial DENV-4 rNS1) (Dengue virus 4, strain  …, UniProt P09866); test: western blot; details: one partner purified
[3] = target: T2, SUMO*-DENV-4 NS1 fusion protein (Dengue virus 4 strain H241 (printed …, UniProt Q58HT7)); test: ELISA; details: one partner purified
T2 construct: also called SUMO*-DENV-4 rNS1 fusion protein; SUMO*-NS1 fusion protein

[4] = target: T1, recombinant DENV-4 non-structural …; test: ELISA; details: one partner purified

T2 sequence (Q58HT7 whole entry, the tested form may be a part): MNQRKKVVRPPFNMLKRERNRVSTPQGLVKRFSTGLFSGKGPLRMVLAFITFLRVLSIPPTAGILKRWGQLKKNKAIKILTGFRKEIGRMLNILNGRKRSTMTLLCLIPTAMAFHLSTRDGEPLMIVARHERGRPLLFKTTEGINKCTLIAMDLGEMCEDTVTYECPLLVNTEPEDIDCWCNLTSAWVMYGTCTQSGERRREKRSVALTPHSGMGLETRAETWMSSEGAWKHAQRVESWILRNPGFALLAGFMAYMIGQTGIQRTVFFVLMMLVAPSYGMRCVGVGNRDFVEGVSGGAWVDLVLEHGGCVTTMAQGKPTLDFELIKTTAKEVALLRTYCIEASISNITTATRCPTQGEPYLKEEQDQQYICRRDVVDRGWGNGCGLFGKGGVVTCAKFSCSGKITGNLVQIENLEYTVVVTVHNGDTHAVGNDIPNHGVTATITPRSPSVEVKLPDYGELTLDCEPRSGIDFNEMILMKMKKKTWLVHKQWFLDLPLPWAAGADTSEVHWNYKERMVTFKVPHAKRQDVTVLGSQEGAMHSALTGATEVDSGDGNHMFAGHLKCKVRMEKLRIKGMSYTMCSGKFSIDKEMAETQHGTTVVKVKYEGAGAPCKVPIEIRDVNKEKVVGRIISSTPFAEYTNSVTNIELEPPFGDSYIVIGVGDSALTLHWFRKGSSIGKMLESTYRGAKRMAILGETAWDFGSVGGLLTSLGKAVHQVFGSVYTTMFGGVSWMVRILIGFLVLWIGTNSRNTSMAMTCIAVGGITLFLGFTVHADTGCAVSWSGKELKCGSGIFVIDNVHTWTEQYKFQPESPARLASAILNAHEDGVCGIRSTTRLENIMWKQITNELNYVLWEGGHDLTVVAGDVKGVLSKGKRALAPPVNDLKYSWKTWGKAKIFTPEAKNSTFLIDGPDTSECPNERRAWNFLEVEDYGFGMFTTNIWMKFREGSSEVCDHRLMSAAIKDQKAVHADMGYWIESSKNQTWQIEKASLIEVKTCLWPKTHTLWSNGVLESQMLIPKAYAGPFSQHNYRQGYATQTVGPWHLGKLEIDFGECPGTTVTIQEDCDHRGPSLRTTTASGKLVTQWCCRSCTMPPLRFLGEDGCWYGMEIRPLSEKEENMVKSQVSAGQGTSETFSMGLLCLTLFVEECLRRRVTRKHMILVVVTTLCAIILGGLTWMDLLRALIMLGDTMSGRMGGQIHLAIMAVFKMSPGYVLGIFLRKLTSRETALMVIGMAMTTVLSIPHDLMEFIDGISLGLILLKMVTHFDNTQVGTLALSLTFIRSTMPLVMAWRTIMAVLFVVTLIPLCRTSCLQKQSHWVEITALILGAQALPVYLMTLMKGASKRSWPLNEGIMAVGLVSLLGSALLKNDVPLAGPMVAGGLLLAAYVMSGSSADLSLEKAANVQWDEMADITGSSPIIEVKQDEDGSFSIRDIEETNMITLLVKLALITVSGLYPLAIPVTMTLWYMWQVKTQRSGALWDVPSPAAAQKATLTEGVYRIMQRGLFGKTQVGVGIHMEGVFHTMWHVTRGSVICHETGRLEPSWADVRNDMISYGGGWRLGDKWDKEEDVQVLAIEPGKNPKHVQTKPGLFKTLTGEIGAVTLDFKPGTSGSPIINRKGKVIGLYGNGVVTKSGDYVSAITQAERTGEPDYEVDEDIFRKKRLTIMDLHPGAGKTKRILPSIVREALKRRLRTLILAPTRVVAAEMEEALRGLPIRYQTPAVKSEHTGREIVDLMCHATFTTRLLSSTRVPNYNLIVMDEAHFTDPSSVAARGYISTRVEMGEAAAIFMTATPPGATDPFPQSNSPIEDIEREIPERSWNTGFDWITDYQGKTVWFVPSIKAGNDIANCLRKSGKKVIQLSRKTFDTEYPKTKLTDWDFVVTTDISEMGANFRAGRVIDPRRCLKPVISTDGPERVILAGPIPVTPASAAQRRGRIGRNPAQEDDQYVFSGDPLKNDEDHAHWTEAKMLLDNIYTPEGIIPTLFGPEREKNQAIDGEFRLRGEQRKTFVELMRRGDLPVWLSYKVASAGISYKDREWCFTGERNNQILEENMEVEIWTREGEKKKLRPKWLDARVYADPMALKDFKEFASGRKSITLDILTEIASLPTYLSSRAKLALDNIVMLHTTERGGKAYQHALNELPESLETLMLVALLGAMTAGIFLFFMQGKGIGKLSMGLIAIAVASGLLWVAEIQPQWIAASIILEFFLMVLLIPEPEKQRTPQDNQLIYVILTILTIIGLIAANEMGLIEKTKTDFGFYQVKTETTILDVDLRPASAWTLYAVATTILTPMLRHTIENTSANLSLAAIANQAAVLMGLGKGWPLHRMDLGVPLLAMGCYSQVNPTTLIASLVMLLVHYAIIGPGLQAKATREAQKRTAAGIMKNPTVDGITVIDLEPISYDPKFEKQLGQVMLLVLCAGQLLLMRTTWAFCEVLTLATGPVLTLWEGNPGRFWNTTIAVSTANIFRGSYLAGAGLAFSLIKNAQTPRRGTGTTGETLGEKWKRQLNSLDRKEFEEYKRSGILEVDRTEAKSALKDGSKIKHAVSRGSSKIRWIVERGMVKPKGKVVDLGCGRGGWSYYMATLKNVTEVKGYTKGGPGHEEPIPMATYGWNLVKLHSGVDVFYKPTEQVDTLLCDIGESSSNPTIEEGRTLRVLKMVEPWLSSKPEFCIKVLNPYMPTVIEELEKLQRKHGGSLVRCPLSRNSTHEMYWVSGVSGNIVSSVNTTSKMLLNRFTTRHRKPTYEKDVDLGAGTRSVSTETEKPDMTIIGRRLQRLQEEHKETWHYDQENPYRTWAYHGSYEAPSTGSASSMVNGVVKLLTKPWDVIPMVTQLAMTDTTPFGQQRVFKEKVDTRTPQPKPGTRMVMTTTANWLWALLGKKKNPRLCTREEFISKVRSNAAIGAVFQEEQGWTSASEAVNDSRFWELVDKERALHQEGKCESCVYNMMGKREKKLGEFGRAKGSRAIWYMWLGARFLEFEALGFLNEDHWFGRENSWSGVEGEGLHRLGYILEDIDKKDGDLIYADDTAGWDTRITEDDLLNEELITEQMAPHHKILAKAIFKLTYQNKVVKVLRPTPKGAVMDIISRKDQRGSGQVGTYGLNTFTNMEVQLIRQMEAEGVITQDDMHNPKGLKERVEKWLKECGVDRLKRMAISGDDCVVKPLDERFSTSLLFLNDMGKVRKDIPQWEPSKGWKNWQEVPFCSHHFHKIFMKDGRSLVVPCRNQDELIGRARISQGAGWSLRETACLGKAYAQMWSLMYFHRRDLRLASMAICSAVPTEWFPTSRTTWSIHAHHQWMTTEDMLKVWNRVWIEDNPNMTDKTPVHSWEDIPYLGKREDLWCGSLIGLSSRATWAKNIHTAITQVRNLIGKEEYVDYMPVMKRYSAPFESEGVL

| Molecule | stoichiometry N [1] | binding result [2] | binding result [3] | binding result [4] |
| --- | --- | --- | --- | --- |
| SUMO*-DENV-4 NS1 fusion protein (from UniProt Q58HT7 775-1126) | 2 |  |  |  |
| B1 |  | binds | binds |  |
| B2 |  |  | binds |  |
| B3 |  |  | binds | binds |
